This is an account of results in paper PMC3713010, “Sox2 Transcriptionally Regulates Pqbp1, an Intellectual Disability-Microcephaly Causative Gene, in Neural Stem Progenitor Cells”.

Common to all, as to assay: EMSA; 10% glycerol, 20 mM HEPES pH 7.8, 45 mM KCl, 10 mM NaCl, 1 mM EDTA, 1 mM DTT, 0.2 ug/uL BSA, 0.1% NP-40, 50 ng poly-dIdC; 20 ng each GST protein; room temperature 30 min (heterodimers 4 C); 6% PAGE 0.25x TBE
What all share (details): protein: recombinant; tags: GST (N-terminal, pGEX-6P-1); label: 32P-dCTP fill-in of the 5' (dG)5 overhangs of both strands (Methods; control probes are given with GGG)

Data set [1] has as its target T1, Brn2 DNA-binding domain (BD-Brn2) (Mus musculus (B6), UniProt P31360 336-435).
T1 sequence: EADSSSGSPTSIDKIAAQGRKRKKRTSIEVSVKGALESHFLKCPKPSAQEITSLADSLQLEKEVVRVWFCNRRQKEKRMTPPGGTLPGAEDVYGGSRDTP
In a few lines: (§1)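 DNA binding of transcription factor DNA-binding domains to candidate cis-elements was read from band radioactivity in the expected shift region. The GST-tagged domains came from E. coli BL21 via glutathione-sepharose; probes were annealed oligonucleotides labelled with 32P-dCTP. Each assay used 20 ng protein, 40,000–50,000 cpm probe and 50 ng poly-dIdC for 30 min at room temperature, followed by 6% polyacrylamide electrophoresis in 0.25×TBE at 4°C.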

For data set [2], the target named is Pax6 DNA-binding domain (BD-Pax6) (Mus musculus (B6), UniProt P63015 190-289). A digest of the protocol:
as §1

For data set [3], the target named is T2, Oct6 DNA-binding domain (BD-Oct6) (Mus musculus (B6), UniProt P21952 317-416).
T2 sequence: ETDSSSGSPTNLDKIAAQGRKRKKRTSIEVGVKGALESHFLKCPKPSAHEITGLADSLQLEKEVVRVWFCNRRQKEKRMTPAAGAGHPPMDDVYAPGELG
A digest of the protocol: as §1

Sequence of Pax6 DNA-binding domain (BD-Pax6) (P63015 190-289): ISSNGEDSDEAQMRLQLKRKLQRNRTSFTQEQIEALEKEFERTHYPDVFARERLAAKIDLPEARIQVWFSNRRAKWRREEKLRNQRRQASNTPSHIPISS

B1: 93 (dsDNA)
DNA 1: GGGGGATAGAGGCACAAAAATTTCCAGAGACTGGCCCCC
DNA 2: GGGGGCCAGTCTCTGGAAATTTTTGTGCCTCTATCCCCC
Consider B1, for which the binding result in data set [1], in data set [2] and in data set [3] was “no binding” each time.

B2: 98 (dsDNA)
DNA 1: GGGGGTTATGAATACAATTCATTATAACCATGGATCCCCC
DNA 2: GGGGGATCCATGGTTATAATGAATTGTATTCATAACCCCC
B2: the binding result in data set [1] was “binds”; in data set [2], “no binding”; in data set [3], “binds”.

B3: 89 (dsDNA)
DNA 1: GGGGGCTACCACACCCAACCTCTAGTAAAGGTTTACAAAATGAATGACCCCC
DNA 2: GGGGGTCATTCATTTTGTAAACCTTTACTAGAGGTTGGGTGTGGTAGCCCCC
Regarding B3, the binding result was “no binding” in data set [1], “binds” in data set [2] and “no binding” in data set [3].

B4: 94 (dsDNA)
DNA 1: GGGGGATCTGTAAAGGAAATTACTTTGTAGGAAATTTGATGGAACTGCCCCC
DNA 2: GGGGGCAGTTCCATCAAATTTCCTACAAAGTAATTTCCTTTACAGATCCCCC
Take B4: the binding result in data set [1], in data set [2] and in data set [3] was “binds” throughout.

B5: 91 (dsDNA)
DNA 1: GGGGGTTTGTTTGTTTGTTTTTAAAAATAAGGTCTCGGGCCCCC
DNA 2: GGGGGCCCGAGACCTTATTTTTAAAAACAAACAAACAAACCCCC
Regarding B5, the values for the binding result in data set [1], in data set [2] and in data set [3] were “no binding”, “binds” and “binds”, respectively.

B6: 87 (dsDNA)
DNA 1: GGGGGTTATGACTGTTTAATAATATATATTGTGTTCTGGCCCCCC
DNA 2: GGGGGGCCAGAACACAATATATATTATTAAACAGTCATAACCCCC
B6: the binding result in data set [1], in data set [2] and in data set [3] was “binds” throughout.

B7: 92 (dsDNA)
DNA 1: GGGGGATATAATAATAAATCTTTAAAACAAAAAAAAAAACCCCC
DNA 2: GGGGGTTTTTTTTTTTGTTTTAAAGATTTATTATTATATCCCCC
B7: the binding result in data set [1], in data set [2] and in data set [3] was “binds” throughout.

B8: 88 (dsDNA)
DNA 1: GGGGGTGTTTTGTTTTGTTTTTTGTATTGGGAAGTGGGCCCCC
DNA 2: GGGGGCCCACTTCCCAATACAAAAAACAAAACAAAACACCCCC
For B8, the binding result in data set [1], in data set [2] and in data set [3] was “no binding” in each case.

B9: 96 (dsDNA)
DNA 1: GGGGGACATAGACACAAATAGCAGACAATGACCTTGACCCCC
DNA 2: GGGGGTCAAGGTCATTGTCTGCTATTTGTGTCTATGTCCCCC
B9: the binding result in data set [1], in data set [2] and in data set [3] was “no binding” each time.

B10: 90 (dsDNA)
DNA 1: GGGGGTGCTGTTTTTTGTTACTGTCACTAATTACATTTTAAATTATCCCCC
DNA 2: GGGGGATAATTTAAAATGTAATTAGTGACAGTAACAAAAAACAGCACCCCC
Turning to B10, the binding result in data set [1], in data set [2] and in data set [3] was “binds” throughout.

B11: 99 (dsDNA)
DNA 1: GGGGGATATAACAAGATAATCATTGTTTTGAATATTCCAAGGATTTCCCCC
DNA 2: GGGGGAAATCCTTGGAATATTCAAAACAATGATTATCTTGTTATATCCCCC
On to B11, for which the binding result in data set [1], in data set [2] and in data set [3] was “binds” throughout.

B12: 86 (dsDNA)
DNA 1: GGGGGAGTTTAGTTTGTAGAGTACTTACCTAGCAGCACAAAGCCCTGCCCCC
DNA 2: GGGGGCAGGGCTTTGTGCTGCTAGGTAAGTACTCTACAAACTAAACTCCCCC
For B12, the binding result in data set [1], in data set [2] and in data set [3] was “no binding” throughout.

B13: 95 (dsDNA)
DNA 1: GGGGGGGTTTTCTTTTGTACACTTAATATCCGCTGGGGCCCCC
DNA 2: GGGGGCCCCAGCGGATATTAAGTGTACAAAAGAAAACCCCCCC
For the molecule B13, the binding result was “no binding” in data set [1], “binds” in data set [2] and “binds” in data set [3].

B14: 85 (dsDNA)
DNA 1: GGGGGACATATGCAATTGTTTCCTGTATTATAGTAGAGATCCCCC
DNA 2: GGGGGATCTCTACTATAATACAGGAAACAATTGCATATGTCCCCC
Consider B14, for which the binding result was “no binding” in data set [1], “binds” in data set [2] and “no binding” in data set [3].

B15: 97 (dsDNA)
DNA 1: GGGGGTAGATGCTACAAAAGATACTGATTAAAACCCAAATGCCCCC
DNA 2: GGGGGCATTTGGGTTTTAATCAGTATCTTTTGTAGCATCTACCCCC
Consider B15, for which the binding result in data set [1], in data set [2] and in data set [3] was “binds” throughout.
